# Results as given in EP2338512A1 (MedImmune, LLC, dated 2011).
# What was measured:
# [1] = target: T1, RSV F glycoprotein (NUF4) (respiratory syncytial virus (strain not …)); assay: BIAcore, monoclonal antibody vs NUF4 (1:1)
# [2] = target: T1, RSV F glycoprotein (NUF4); assay: ITC, NUF4 titrated into antibody
# [3] = target: T1, RSV F glycoprotein (NUF4); assay: BIAcore, monoclonal antibody vs NUF4 (2:1)
# Bac-F = assay: BIAcore, monoclonal antibody vs Bac-F (1:1)
binder,measurement,setting,value
"A4B4 (monoclonal antibody) (antibody, V domains shown) VH: QVTLRESGPALVKPTQTLTLTCTFSGFSLSTAGMSVGWIRQPPGKALEWLADIWWDDKKHYNPSLKDRLTISKDTSKNQVVLKVTNMDPADTATYYCARDMIFNFYFDVWGQGTTVTVSS VL: DIQMTQSPSTLSASVGDRVTITCSASSRVGYMHWYQQKPGKAPKLLIYDTFFLDSGVPSRFSGSGSGTEFTLTISSLQPDDFATYYCFQGSGYPFTFGGGTKLEIK","number in parentheses after KD (ratio to SYNAGIS, which has 1)",[1],15 fold
same,ΔHb,[2],22.2 kcal/mol
same,"number in parentheses after KD (ratio to SYNAGIS, which has 1)",[3],156 fold
same,"number in parentheses after KD (ratio to SYNAGIS, which has 1)",Bac-F,195 fold
